B1: Twister Ribozyme (parent)
chain: AACACUGCCAAUGCCGGUCCCAAGCCCGGAUAAAAGUGGAGGGGGCGG

Variants of: B1
Assay: self-cleavage, relative activity (ratio to wild type); higher = more cleavage; co-transcriptional

Variant | self-cleavage
A10U C14A | 0.824
A34G G47U | 0.553
C27A A30C | 0.12
A2G | 0.411
G41U G45C | 0.177
U12G G45U | 0.419
A11U A32G | 0.911
G24U G44C | 0.0809
G24U G44U | 0.097
G44U G48A | 0.717
A11G G28C | 0.801
G24A C27A | 0.0771
A2U A22C | 0.311
C8A C26G | 0.0829
C27G U31C | 0.072
A23C A30C | 0.116
C26A A32C | 0.575
U31A G42C | 0.503
U12G A34U | 0.701
U31A G41U | 0.55
C25A G42A | 0.0675
C14U U18G | 0.0637
U12C C14U | 1.06
A4C | 0.218

Variant | self-cleavage
G7A U18A | 0.0724
C14G G38A | 0.127
C5G C21U | 0.104
C26G G45A | 0.154
A11C A23G | 0.249
C8U A30U | 0.662
U6G G17U | 0.0541
G17U G24A | 0.101
G39C A40U | 0.165
A11G C21G | 0.0655
C3U G7U | 0.0522
A1U U37G | 0.0556
G17A G29C | 0.222
A2U C27U | 0.357
G28A G44A | 0.702
A4U C25A | 0.029
A23C U31C | 0.247
G47C G48C | 0.799
U18A G28A | 0.2
C8A G48A | 0.215
C8A G48C | 0.346
C9U U12C | 0.501
A4G A10G | 0.892
C15G G29A | 0.104

Variant | self-cleavage
C5A C20G | 0.0697
C14U G24C | 0.102
C19G C27G | 0.0733
G7C U31C | 0.0704
C19U A33G | 0.889
A22U U31G | 0.833
C8A A10U | 0.239
C8A G43C | 0.153
C19A G38A | 0.132
A10U C20U | 0.948
C14A G38U | 0.676
A10U G42A | 0.489
A2U A30U | 0.713
G7U C26U | 0.0446
G13A C21U | 0.0803
A1G G45C | 0.254
G24U A32C | 0.113
C9A A33C | 0.603
A11U G42C | 0.623
C20A G38U | 0.0791
G16A G28U | 0.607
U31C G44A | 1.1
A23U A33C | 0.186
A11G C15G | 0.0492

Variant | self-cleavage
U6G A32G | 0.337
A32U G36U | 0.148
C46G G48C | 1.55
A1C A33G | 0.116
C20G A35C | 0.14
U12C G41C | 0.264
C20G C21G | 0.103
A22C A30G | 1.16
G13A G43A | 0.14
A10C G36U | 0.722
G7C C20A | 0.0744
C25U G36C | 0.15
A11G G38C | 0.683
A2U U18G | 0.0917
C25U G29A | 0.734
C14U A35G | 0.917
C14U A35U | 1.03
A32C G44C | 1.03
A10U C46A | 0.913
A40U G41A | 0.142
G13C A34U | 0.137
G13C A34G | 0.253
C8G G42U | 0.147
U18G C20G | 0.069

Variant | self-cleavage
C14G C20A | 0.104
C8A C20U | 0.0847
A32G A35C | 0.914
C25U C46G | 0.762
A23G A40C | 0.0453
C5U C21G | 0.0614
G43A G47C | 0.208
G17C A32G | 0.129
A4U C8U | 0.0539
G29U A40C | 0.208
G7A G36U | 0.108
G17C G43A | 0.0872
U6C A23G | 0.0715
G17C G38A | 0.0789
C15G C20G | 0.0898
C5A G39U | 0.0872
C25G G47C | 0.142
C8A A23G | 0.0496
C20U A35C | 0.881
G39U G48U | 0.196
C5A A30C | 0.348
G28U A32C | 0.716
C27G G28A | 0.0984
A32G G42U | 0.357

Variant | self-cleavage
C5U G7A | 0.147
G43C C46U | 0.214
C26U G36A | 0.0777
U37G G43A | 0.13
U6G C19A | 0.0816
G17A G36U | 0.108
G17A G36C | 0.118
A1G G47A | 0.334
G28U G38C | 0.676
C14U C27A | 0.586
G13U C20U | 0.134
G28C A40U | 0.17
C9G G43U | 0.134
C27A G44U | 0.41
C3A C9U | 0.0898
A22C C27A | 0.768
A4U A32C | 0.1
C5G G36U | 0.724
C21A A23U | 0.091
G13C | 0.584
G7A C8A | 0.0866
A2C U31G | 0.177
C5A A11C | 0.169
C15G A35C | 0.123

Variant | self-cleavage
A22U G44A | 0.788
C15G G17A | 0.326
C15U G41A | 0.483
C27A A40U | 0.142
C27A G39A | 0.128
G7U G36C | 0.0408
C14U G45U | 0.964
A32U G38A | 0.85
A1C A23U | 0.184
G41U G47U | 0.3
G7U A10U | 0.0807
G17U A32U | 0.294
G16C G39U | 0.144
G29C G41C | 0.0927
A2G C15G | 0.0529
A34U G42C | 0.217
A40U G47C | 0.142
A33C U37A | 0.447
C8G C9A | 0.0971
A1G A32G | 0.507
U6G A22G | 0.106
C8G A22C | 0.437
C26U G41C | 0.154
